From publication PMC6614843 (2019)

What was measured:
[1] = target: T1, Polβ(WT), purified recombinant (human, UniProt P06746 1-335); test: SPR; representative experiment
[2] = target: T2, Polβ(T304I), purified recombinant (human, UniProt P06746 1-335, T304I); test: SPR; representative experiment
[3] = target: T1, Polβ(WT), purified recombinant; test: SPR; mean of repeats
[4] = target: T2, Polβ(T304I), purified recombinant; test: SPR; mean of repeats

- Kd [1]: 358 nM
- Kd [2]: 3650 nM
- Kd [3]: 534 nM
- Kd [4]: 3300 nM
B1: NTD-XRCC1(1-151)-His (domain or fragment)
chain: MPEIRLRHVVSCSSQDSTHCAENLLKADTYRKWRAAKAGEKTISVVLQLEKEEQIHSVDIGNDGSAFVEVLVGSSAGGAGEQDYEVLLVTSSFMSPSESRSGSNPNRVRMFGPDKLVRAAAEKRWDRVKIVCSQPYSKDSPFGLSFVRFHS
